Molecular target: the molecule itself
Assay: SEC; gel filtration of purified recombinant rRII-3; column and buffer not told in the text shown (Figure S3)

B1: recombinant RII-3 of P. falciparum reticulocyte binding protein homologue 1 (PfRH1), amino acids 500 to 833 (domain or fragment)
chain: LQIVQQKLLEIKQKKNDITHKVQLINHIYKNIHDEILNKKNNEITKIIINNIKDHKKDLQDLLLFIQQIKQYNILTDHKITQCNNYYKEIIKMKEDINHIHIYIQPILNNLHTLKQVQNNKIKYEEHIKQILQKIYDKKESLKKIILLKDEAQLDITLLDDLIQKQTKKQTQTQTQTQKQTLIQNNETIQLISGQEDKHESNPFNHIQTYIQQKDTQNKNIQNLLKSLYNGNINTFIDTISKYILKQKDIELTQHVYTDEKINDYLEEIKNEQNKIDKTIDDIKIQETLKQITHIVNNIKTIKKDLLKEFIQHLIKYMNERYQNMQQGYNNLTN
notes: region II amino acids 500 to 833 (334 residues); Cloned EcoRI/XhoI into pET24a(+); no cleavage of the tag is described; Primers are in Protocol S1; also called rRII-3; source: E. coli BL21-CodonPlus-RIL, purified (Ni-NTA, MonoS ion exchange); not shown: His6, C-terminal, kept
stoichiometry N: 3
